Nine molecules from patent publication US20210403514A1 (NATIONAL INSTITUTE FOR BIOTECHNOLOGY IN THE NEGEV, published 2021) can be followed below.

Numbering of substitutions follows the chain as printed. Names may count otherwise.

Data set [1] addresses T1, soluble human c-FMS receptor (extracellular domains, residues Met1-Glu512) (Sino Biological) (human, UniProt P07333 20-512).
T1 construct: range 1-512; Analyte in both SPR experiments; The printed range starts at Met1, so it includes the signal peptide; also called human c-FMS soluble proteins
Nature of the data set: SPR (ProteOn XPR36), M-CSF protein immobilised, c-FMS (Met1-Glu512) 4.375-70 nM as analyte, equilibrium, N=3.

Data set [2] concerns the molecule itself. Nature of the data set: SAXS, radius of gyration against protein concentration; oligomeric state (homodimer) in solution.
Data set [3] deals with T2, soluble Fc conjugated human c-FMS (R&D systems) (human, UniProt P07333 20-512).
T2 construct: Bought reagent; Used in all yeast display experiments; also called c-FMS-Fc; c-FMS-Fc recombinant protein; not shown: Fc (detected with goat anti human Fc)
Description: yeast surface display, flow cytometry; soluble c-FMS-Fc titrated from 0.5 to 2000 nM.

Data set [4] deals with T2, soluble Fc conjugated human c-FMS (R&D …). Nature of the data set: yeast surface display flow cytometry; displayed M-CSFM titrated with c-FMS-Fc (0.5 nM to 2000 nM); apparent KD.
Data set [5] concerns the molecule itself. Nature of the data set: BS3 chemical crosslinking, SDS-PAGE, InstantBlue stain; self-association (homodimer).
The target of data set [6] is T1, soluble human c-FMS receptor …. Description: SPR (ProteOn XPR36), M-CSF protein immobilised, c-FMS (Met1-Glu512) as analyte, equilibrium, N=3.
Data set [7] has the same target. Description: SPR (ProteOn XPR36), M-CSF protein immobilised, c-FMS 0-200 nM as analyte, equilibrium.
In data set [8] the target is T3, soluble human αvβ3 integrin (human, UniProt P06756 31-992; P05106 27-718).
T3 construct: R&D Systems for yeast display; also called integrin αvβ3; recombinant αvβ3 integrin
Nature of the data set: SPR (ProteOn XPR36); variant immobilized by amine coupling, soluble αvβ3 integrin flowed at 12.5 to 200 nM; panel assigned to M-CSFM although the legend prints '9A and 9E'.

The target in data set [9] is T4, murine c-FMS on bone marrow derived monocytes (BMMs) (mouse, UniProt P09581 20-977).
T4 sequence (looked up): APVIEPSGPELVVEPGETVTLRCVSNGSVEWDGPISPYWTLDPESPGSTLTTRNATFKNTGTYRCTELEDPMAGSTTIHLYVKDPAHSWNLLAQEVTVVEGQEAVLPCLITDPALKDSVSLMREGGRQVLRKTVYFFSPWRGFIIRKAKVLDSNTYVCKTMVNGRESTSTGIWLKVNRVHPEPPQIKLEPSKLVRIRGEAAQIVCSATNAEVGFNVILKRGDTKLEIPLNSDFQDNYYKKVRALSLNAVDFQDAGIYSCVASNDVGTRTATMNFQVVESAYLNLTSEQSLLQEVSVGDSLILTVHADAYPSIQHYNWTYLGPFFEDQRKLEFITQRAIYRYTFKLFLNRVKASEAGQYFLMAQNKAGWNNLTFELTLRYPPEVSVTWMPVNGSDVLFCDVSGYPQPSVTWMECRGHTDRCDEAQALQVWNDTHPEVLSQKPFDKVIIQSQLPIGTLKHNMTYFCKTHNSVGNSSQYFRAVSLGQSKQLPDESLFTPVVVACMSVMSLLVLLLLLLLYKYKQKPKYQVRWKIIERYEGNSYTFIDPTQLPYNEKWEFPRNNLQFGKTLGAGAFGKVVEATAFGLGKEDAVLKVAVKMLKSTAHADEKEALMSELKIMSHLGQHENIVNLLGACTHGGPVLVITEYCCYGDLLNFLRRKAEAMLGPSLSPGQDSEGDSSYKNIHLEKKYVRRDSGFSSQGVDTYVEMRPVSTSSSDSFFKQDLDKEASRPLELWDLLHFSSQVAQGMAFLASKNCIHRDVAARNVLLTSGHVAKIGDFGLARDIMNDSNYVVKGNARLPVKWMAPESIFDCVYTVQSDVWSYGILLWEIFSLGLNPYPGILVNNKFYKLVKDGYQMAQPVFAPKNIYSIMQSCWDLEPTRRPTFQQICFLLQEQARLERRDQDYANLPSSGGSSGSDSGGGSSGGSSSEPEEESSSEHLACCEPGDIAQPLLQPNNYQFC
Nature of the data set: cell-based or functional assay.

Data set [10] concerns the target T3, soluble human αvβ3 integrin. Nature of the data set: SPR (ProteOn XPR36), variant immobilised, αvβ3 integrin 0-200 nM as analyte, equilibrium.
Data set [11] concerns the target T5, integrin α4β7 (human, UniProt P13612 34-977; P26010 20-723, limits assumed).
T5 construct: Immobilised on the SPR chip
Nature of the data set: SPR (ProteOn XPR36); α4β7 integrin immobilized, variant flowed at 1 µM.

Data set [12] deals with T1, soluble human c-FMS receptor …. Nature of the data set: SPR (ProteOn XPR36), variant immobilised, c-FMS 0-200 nM as analyte, equilibrium.
In data set [13] the target is T6, integrin α3β1 (human, UniProt P26006 33-991; P05556 21-728, limits assumed).
T6 construct: Immobilised on the SPR chip
Description: SPR (ProteOn XPR36); α3β1 integrin immobilized, variant flowed at 1 µM.

The target of data set [14] is T7, integrin α5β1 (human, UniProt P08648 42-995; P05556 21-728, limits assumed).
T7 construct: Immobilised on the SPR chip
Nature of the data set: SPR (ProteOn XPR36); α5β1 integrin immobilized, variant flowed at 1 µM.

Data set [15] concerns the molecule itself. Nature of the data set: BS3 chemical crosslinking, denaturing SDS-PAGE, Coomassie stain; self-association (homodimer).
Data set [16] deals with the molecule itself. Described as above. The source holds these as a separate data set.
Data set [17] has as its target T3, soluble human αvβ3 integrin. Description: SPR (ProteOn XPR36), M-CSFαvβ3 immobilised, αvβ3 integrin 0-200 nM as analyte, equilibrium.

One may read the EC50 (read off the curve) as the concentration giving half of the maximal effect. Low values mean an effect from little substance, high ones a need for much substance.

T6 sequence (P26006 33-991 limits assumed, chain 1 of 2): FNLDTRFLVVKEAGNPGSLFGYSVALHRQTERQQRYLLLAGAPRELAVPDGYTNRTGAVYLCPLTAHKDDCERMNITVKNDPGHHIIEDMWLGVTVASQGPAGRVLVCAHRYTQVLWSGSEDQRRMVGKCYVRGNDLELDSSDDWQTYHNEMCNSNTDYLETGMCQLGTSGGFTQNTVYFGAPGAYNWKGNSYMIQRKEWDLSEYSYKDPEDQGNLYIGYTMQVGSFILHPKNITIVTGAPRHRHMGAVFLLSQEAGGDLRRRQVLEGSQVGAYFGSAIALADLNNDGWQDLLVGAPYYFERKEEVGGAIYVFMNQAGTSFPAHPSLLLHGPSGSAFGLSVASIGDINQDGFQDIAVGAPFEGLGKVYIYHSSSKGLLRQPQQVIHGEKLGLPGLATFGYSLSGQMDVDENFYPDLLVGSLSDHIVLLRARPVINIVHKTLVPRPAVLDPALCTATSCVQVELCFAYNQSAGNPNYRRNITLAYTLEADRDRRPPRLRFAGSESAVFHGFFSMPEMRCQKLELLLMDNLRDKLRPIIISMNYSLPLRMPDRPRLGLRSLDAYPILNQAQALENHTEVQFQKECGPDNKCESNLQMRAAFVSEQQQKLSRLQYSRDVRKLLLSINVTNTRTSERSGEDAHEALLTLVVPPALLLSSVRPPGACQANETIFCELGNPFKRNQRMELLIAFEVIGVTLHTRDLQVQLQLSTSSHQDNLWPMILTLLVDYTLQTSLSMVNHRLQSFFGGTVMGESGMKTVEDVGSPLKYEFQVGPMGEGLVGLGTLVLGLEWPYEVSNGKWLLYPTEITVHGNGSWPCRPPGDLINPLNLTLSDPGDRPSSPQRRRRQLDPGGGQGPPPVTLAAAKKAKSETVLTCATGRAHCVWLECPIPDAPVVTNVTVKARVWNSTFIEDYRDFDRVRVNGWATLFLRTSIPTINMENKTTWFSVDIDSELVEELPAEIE
T6 sequence (P05556 21-728 limits assumed, chain 2 of 2): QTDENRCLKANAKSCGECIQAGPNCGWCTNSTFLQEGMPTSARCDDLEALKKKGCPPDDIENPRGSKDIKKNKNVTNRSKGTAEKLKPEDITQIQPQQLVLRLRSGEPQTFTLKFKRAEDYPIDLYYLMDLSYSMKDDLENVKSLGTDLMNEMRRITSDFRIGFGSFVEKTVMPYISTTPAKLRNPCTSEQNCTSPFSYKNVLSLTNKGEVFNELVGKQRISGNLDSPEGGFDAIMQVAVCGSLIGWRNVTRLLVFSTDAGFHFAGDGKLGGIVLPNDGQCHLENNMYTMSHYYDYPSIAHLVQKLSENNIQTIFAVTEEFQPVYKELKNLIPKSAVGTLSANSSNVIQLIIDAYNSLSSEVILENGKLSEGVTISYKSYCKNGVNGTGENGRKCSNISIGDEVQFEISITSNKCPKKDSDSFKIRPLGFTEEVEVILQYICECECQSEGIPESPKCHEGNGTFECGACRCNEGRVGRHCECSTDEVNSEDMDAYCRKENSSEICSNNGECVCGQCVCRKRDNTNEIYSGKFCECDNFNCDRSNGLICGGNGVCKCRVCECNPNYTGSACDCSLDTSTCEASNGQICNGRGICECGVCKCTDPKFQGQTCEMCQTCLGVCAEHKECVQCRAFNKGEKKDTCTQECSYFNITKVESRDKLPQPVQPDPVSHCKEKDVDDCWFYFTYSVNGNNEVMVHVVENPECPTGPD
T7 sequence (P08648 42-995 limits assumed, chain 1 of 2): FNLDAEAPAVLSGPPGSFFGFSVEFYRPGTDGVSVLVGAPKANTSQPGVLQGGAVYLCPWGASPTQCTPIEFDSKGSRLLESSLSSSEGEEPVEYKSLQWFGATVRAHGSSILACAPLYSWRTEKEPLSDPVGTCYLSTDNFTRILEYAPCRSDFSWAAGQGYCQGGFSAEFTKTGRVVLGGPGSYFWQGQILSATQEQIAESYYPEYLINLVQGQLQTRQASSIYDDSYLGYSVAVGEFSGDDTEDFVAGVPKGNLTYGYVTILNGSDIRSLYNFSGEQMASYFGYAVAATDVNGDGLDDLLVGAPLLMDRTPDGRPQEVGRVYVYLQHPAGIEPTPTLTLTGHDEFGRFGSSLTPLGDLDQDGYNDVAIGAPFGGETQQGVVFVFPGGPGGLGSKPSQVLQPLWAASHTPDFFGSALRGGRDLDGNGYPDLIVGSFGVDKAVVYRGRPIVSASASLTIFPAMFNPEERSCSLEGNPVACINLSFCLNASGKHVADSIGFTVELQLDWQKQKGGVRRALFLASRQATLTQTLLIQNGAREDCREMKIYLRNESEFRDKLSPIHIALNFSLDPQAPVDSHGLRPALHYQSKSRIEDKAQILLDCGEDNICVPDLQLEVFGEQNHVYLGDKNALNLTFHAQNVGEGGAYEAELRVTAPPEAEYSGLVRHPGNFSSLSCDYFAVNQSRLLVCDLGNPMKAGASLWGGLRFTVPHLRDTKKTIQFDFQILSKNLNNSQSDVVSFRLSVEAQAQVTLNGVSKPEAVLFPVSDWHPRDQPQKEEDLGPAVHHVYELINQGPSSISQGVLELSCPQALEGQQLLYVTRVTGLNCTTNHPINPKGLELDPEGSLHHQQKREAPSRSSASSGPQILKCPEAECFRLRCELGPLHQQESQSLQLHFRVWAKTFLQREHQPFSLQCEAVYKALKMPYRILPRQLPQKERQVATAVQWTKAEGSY
T7 sequence (P05556 21-728 limits assumed, chain 2 of 2): as the sequence (P05556 21-728 limits assumed, chain 2 of 2) above
T3 sequence (P06756 31-992 limits assumed, chain 1 of 2): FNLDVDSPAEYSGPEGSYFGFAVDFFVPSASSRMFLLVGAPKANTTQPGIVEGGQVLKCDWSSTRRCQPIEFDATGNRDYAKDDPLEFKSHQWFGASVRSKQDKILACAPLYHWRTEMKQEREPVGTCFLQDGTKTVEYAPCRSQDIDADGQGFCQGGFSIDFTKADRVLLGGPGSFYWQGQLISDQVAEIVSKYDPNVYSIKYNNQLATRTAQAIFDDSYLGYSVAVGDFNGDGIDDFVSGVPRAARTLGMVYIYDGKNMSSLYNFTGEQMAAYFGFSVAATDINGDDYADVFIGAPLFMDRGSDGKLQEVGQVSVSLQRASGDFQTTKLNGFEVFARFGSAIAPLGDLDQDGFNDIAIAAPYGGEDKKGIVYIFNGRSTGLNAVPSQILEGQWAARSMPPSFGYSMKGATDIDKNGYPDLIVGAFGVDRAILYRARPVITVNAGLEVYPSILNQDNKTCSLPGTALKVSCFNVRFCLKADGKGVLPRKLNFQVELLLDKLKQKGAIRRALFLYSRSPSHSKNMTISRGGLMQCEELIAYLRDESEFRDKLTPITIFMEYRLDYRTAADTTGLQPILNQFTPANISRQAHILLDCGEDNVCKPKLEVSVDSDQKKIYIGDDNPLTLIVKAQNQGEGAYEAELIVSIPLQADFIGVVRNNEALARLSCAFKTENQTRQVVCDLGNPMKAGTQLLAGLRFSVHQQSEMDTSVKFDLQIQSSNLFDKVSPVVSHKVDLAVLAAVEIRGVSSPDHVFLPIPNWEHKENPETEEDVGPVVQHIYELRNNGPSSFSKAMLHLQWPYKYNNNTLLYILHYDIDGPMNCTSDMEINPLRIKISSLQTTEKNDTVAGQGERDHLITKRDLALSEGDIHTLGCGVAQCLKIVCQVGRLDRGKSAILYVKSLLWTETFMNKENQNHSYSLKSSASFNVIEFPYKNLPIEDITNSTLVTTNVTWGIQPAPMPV
T3 sequence (P05106 27-718 limits assumed, chain 2 of 2): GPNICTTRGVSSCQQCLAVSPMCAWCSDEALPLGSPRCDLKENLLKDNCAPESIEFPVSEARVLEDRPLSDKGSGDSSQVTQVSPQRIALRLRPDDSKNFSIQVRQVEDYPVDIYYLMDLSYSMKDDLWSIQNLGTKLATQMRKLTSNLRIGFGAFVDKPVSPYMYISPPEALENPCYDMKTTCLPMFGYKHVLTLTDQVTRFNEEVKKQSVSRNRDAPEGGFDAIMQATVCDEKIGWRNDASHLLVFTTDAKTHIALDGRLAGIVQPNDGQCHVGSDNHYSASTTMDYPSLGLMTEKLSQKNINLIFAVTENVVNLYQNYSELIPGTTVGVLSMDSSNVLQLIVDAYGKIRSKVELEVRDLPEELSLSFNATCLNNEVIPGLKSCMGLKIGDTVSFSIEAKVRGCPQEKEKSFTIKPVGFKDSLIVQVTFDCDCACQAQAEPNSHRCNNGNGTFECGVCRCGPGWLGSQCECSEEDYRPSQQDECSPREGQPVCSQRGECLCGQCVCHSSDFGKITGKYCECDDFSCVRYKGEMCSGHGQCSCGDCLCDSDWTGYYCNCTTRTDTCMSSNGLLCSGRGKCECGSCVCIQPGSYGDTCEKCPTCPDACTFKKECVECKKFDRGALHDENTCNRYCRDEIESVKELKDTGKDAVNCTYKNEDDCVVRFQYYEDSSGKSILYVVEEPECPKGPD
T1 sequence (P07333 20-512 limits assumed): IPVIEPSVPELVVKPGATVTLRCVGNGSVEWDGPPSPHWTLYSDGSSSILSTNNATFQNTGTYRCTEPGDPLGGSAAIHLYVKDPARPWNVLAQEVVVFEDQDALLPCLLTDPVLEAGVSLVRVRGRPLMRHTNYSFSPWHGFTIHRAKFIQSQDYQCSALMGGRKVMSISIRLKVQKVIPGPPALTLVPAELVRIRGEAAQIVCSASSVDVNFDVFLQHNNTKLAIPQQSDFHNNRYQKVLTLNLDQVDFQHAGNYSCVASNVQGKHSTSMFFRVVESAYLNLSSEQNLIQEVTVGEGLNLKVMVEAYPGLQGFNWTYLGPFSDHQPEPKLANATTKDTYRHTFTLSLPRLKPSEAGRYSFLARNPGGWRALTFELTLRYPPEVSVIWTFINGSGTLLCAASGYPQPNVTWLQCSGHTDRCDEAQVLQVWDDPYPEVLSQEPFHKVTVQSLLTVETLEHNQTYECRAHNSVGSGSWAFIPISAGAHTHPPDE
T2 sequence (P07333 20-512 limits assumed): as above

B1: human wild-type M-CSF (M-CSFWT) (ligand)
chain: EEVSEYCSHMIGSGHLQSLQRLIDSQMETSCQITFEFVDQEQLKDPVCYLKKAFLLVQDIMEDTMRFRDNTPNAIAIVQLQELSLRLKSCFTKDYEEHDKACVRTFYETPLQLLEKVKNVFNETKNLLDKDWNIFSKNCNNSFAECSSQGHERQSEGS
notes: also called human M-CSFWT
In data set [1], B1 registered a Kd of 25.1 nM. The binding result in data set [2] was “binds”.

B2: M-CSFM displayed on the yeast surface (YSD M-CSFM) (ligand)
chain: B1 chain with C31S
notes: also called M-CSF monomer; not shown: yeast surface display fusion partner (pCTCON construct on the S. cerevisiae cell wall, with c-myc tag)
For B2, the half-maximal effective concentration (EC50 (read off the curve)) in data set [3] was roughly 20 nM. Further, the Kd in data set [4] amounted to 20 nM.

B3: M-CSFC31S,M27R (designed binder)
chain: B1 chain with M27R, C31S
notes: monomer; Purified from Pichia pastoris GS115; also called M-CSFM,M27R; M-CSF double mutant
B3: in data set [5], the binding result was “no binding”. The Kd in data set [6] was 61.5 nM.

B4: M-CSFM, purified soluble, non-glycosylated (M-CSFC31S) (ligand)
chain: B1 chain with C31S
modifications: N-glycans removed with Endo HF (non-glycosylated)
notes: Expressed in Pichia pastoris GS115; Forms non-covalent dimers; also called non-glycosylated M-CSFM; M-CSF monomer; not shown: FLAG tag at the N-terminus of the cloning site (pPIC9K); 6xHis tag at the C-terminus of the cloning site
As for B4, in data set [5], the binding result is “binds”. In [7], this molecule returned a Kd of 31.6 nM. The binding result in data set [8] was “no binding (tested: 200 nM)”. For the same molecule, in [9], the “c-FMS phosphorylation at the peak concentration, fold against M-CSFWT” value came out at 10 fold and the “c-FMS phosphorylation at the peak concentration, fold against the positive control (0.5 nM murine M-CSF)” value came to 40 fold.

B5: glycosylated M-CSFM, purified soluble (ligand)
chain: B1 chain with C31S
modifications: N-glycosylated (two glycosylation sites in positions 122 and 140)
notes: Pichia pastoris product without Endo HF treatment; not shown: FLAG tag at the N-terminus of the cloning site (pPIC9K); 6xHis tag at the C-terminus of the cloning site
Regarding B5, the Kd in data set [7] was found to be 42.6 nM.

B6: M-CSFRGD variant 4.24, purified soluble, non-glycosylated (designed binder)
chain: EEVSEYCSHMIGSGHLQSLQRLIDSQMETSSQITFEFVDQEQLKDPVCYLKKAFLLVQDIMEDEPVRGDNINPNAIAIVQLQELSLRLKSCFTKDYEEHDKACVRTFYETPLQLLEKVKNVFNETKNLLDKDWNIFSKNCNNSFAECSSQGHERQSEGS
modifications: N-glycans removed with Endo HF (non-glycosylated)
notes: not shown: FLAG tag at the N-terminus of the cloning site (pPIC9K); 6xHis tag at the C-terminus of the cloning site
For B6, the Kd in data set [10] was 108 nM; in data set [12], 219 nM. The binding result in [11] is “no binding (tested: 1 µM)”; in [13] it was “no binding (tested: 1 µM)”; in data set [14], “no binding (tested: 1 µM)”; in data set [15], “no binding”.

B7: M-CSFRGD variant 4.22, purified soluble, non-glycosylated (designed binder)
chain: EEVSEYCSHMIGSGHLQSLQRLIDQTSRGDSPSITFEFVDQEQLKDPVCYLKKAFLLVQDIMEDTMRFRDNTPNAIAIVQLQELSLRLKSCFTKDYEEHDKACVRTFYETPLQLLEKVKNVFNETKNLLDKDWNIFSKNCNNSFAECSSQGHERQSEGS
modifications: N-glycans removed with Endo HF (non-glycosylated). Labelled with DyLight 488 NHS ester on amines for the cell binding assays. Amine-coupled to the chip for SPR.
notes: Pichia pastoris product; 21.7 kDa by MS; not shown: N-terminal FLAG tag, C-terminal 6xHis tag and the vector junction residues (pPIC9K cloning site)
For the molecule B7, the Kd in data set [10] came out at 199 nM; in [12], 152 nM. Moreover, the binding result in data set [11] is given as “no binding (tested: 1 µM)”; in [16] it was “no binding”; in [13] it was “no binding (tested: 1 µM)”; in [14] it was “no binding (tested: 1 µM)”.

B8: M-CSFαvβ3 (variant 4.22 with histidine to alanine in positions 9 and 15), purified soluble (designed binder, not shown: small tags and cut ends)
chain: B7 chain with H9A, H15A
modifications: Expressed in Pichia with an N-terminal FLAG tag and a C-terminal 6xHis tag, neither of which is in the letters. N-glycans were removed with Endo HF.
Take B8: in data set [17], the Kd was 231 nM.

B9: M-CSFRGD variant 5.6, purified soluble, non-glycosylated (designed binder)
chain: B7 chain with Q25T, T26Y, S27P, S31M, P32C
modifications: N-glycans removed with Endo HF (non-glycosylated). Labelled with DyLight 488 NHS ester on amines for the cell binding assays. Amine-coupled to the chip for SPR.
notes: Pichia pastoris product; 22 kDa by MS; also called M-CSFRGD 5.6; M-CSF5.6; not shown: N-terminal FLAG tag, C-terminal 6xHis tag and the vector junction residues (pPIC9K cloning site)
On to B9, for which the Kd is 245 nM in data set [10] and 96 nM in data set [12]. Further, the binding result is reported as “no binding (tested: 1 µM)” in [11], “no binding (tested: 1 µM)” in [13], “no binding (tested: 1 µM)” in data set [14] and “no binding” in data set [15].
